The results in this text go back to publication PMC7605111.

The target of assay [1] is class II fructose-1,6-bisphosphatase from Francisella tularensis (Francisella tularensis). Briefly: SEC.
For assay [2] the target is unchanged. Briefly: crystal structure.

By stoichiometry N is commonly meant a count of units in the complex or per binding partner.

Where “and” joins values, the source holds several entries; their conditions need not be identical. Identical values can stand only once.

“class II fructose-1,6-bisphosphatase from Francisella tularensis (enzyme)”: the stoichiometry N was 2 and 4 in assay [1]; 4 in assay [2].
